Publication PMC2602735

Columns and labels:
[1] = target: Sbi-III-IV (amino acids 150–266) (Staphylococcus aureus (entry printed for strain Newman)) (UniProt A6QJQ7)
[2] = target: Sbi-E (amino acids 28–266) (Staphylococcus aureus (entry printed for strain Newman)) (UniProt A6QJQ7)

“complement Factor H (from UniProt P08603 19-1231) (natural protein)” gave an inhibition of alternative pathway-mediated lyses of rabbit erythrocytes by human serum, increasing amounts of Sbi-III/IV [1] of 600 ng and an inhibition of alternative pathway-mediated lyses of rabbit erythrocytes by human serum, increasing amounts of Sbi-E [2] of 600 ng.
